Reference: US20160346281A1

Target: Myc-tagged Abl (Abl-Myc), Drosophila Abl (Drosophila melanogaster) (UniProt P00522)
Assay: cell-based or functional assay

Sequence of Myc-tagged Abl (Abl-Myc), Drosophila Abl (Drosophila melanogaster) (P00522 whole entry): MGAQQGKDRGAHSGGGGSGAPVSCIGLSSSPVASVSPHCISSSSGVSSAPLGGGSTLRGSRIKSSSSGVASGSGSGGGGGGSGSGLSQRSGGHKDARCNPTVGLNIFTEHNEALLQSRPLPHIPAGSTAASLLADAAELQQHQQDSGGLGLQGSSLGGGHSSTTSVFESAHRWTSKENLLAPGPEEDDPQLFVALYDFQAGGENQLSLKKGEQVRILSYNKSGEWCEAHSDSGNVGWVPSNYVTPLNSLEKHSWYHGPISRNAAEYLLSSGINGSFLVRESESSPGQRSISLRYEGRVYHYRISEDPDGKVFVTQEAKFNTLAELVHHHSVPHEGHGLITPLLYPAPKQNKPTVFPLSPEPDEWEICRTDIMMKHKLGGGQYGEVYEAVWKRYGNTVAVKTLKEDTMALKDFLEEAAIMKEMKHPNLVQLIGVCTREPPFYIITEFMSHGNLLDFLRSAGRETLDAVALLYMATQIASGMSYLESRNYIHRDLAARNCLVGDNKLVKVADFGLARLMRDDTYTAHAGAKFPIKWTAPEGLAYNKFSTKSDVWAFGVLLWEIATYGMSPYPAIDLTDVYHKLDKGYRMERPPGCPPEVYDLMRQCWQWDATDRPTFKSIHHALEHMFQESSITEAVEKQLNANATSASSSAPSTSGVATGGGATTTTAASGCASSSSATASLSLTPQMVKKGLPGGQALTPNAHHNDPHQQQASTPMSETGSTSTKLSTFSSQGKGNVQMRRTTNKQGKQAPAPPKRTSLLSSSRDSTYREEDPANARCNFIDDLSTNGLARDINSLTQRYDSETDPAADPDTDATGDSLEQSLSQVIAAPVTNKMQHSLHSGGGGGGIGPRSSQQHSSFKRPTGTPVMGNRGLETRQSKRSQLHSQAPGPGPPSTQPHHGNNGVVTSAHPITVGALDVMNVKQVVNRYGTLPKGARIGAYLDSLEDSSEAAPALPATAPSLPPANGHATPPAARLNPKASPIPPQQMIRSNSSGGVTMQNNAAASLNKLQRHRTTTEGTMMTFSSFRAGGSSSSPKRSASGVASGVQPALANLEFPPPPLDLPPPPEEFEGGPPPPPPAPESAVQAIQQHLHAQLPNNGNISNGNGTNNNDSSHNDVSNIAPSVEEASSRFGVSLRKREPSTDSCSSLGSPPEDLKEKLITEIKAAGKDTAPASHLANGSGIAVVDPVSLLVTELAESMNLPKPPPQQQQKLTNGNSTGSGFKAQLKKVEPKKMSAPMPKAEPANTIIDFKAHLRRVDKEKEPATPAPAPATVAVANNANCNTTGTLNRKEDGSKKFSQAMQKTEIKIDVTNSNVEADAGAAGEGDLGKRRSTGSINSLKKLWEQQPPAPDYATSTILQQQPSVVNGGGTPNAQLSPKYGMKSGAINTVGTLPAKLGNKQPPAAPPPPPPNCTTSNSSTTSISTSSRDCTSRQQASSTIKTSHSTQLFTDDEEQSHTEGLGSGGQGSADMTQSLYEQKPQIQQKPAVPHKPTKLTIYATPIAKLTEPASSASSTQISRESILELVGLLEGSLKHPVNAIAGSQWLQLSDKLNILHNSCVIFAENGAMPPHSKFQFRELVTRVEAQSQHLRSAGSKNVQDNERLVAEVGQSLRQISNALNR

- Abl kinase activation (anti-phospho-Y412-Abl blot intensity normalized to total Abl-Myc, S2 cell lysates): 2.6 fold
Substance: GFP-tagged Dscam (Dscam[3.36.25.2]::GFP) (receptor)
